The labels stand for the following.
B1: Mothers against decapentaplegic homolog 4 (Homo sapiens), Q13485 (parent)
chain: MDNMSITNTPTSNDACLSIVHSLMCHRQGGESETFAKRAIESLVKKLKEKKDELDSLITAITTNGAHPSKCVTIQRTLDGRLQVAGRKGFPHVIYARLWRWPDLHKNELKHVKYCQYAFDLKCDSVCVNPYHYERVVSPGIDLSGLTLQSNAPSSMMVKDEYVHDFEGQPSLSTEGHSIQTIQHPPSNRASTETYSTPALLAPSESNATSTANFPNIPVASTSQPASILGGSHSEGLLQIASGPQPGQQQNGFTGQPATYHHNSTTTWTGSRTAPYTPNLPHHQNGHLQHHPPMPPHPGHYWPVHNELAFQPPISNHPAPEYWCSIAYFEMDVQVGETFKVPSSCPIVTVDGYVDPSGGDRFCLGQLSNVHRTEAIERARLHIGKGVQLECKGEGDVWVRCLSDHAVFVQSYYLDREAGRAPGDAVHKIYPSAYIKVFDLRQCHRQMQQQAATAQAAAAAQAAAVAGNIPGPGSVGGIAPAISLSAAAGIGVDDLRRLCILRMSFVKGWGPDYPRQSIKETPCWIEIHLHRALQLLDEVLHTMPIADPQPLD
partner: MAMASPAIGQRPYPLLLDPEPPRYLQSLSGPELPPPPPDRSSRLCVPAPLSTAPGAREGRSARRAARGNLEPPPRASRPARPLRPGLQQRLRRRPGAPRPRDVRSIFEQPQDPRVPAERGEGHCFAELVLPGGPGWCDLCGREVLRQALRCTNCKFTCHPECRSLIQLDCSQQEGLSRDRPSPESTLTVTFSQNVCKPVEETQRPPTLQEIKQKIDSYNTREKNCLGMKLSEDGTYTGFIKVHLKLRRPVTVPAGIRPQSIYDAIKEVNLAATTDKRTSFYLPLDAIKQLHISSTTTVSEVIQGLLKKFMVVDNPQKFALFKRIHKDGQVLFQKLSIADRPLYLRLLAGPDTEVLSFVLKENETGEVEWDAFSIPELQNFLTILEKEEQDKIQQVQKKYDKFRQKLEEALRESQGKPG
B2: Cytohesin-4 (Homo sapiens), Q9UIA0 (parent)
chain: MDLCHPEPAELSSGETEELQRIKWHRKQLLEDIQKLKDEIADVFAQIDCFESAEESRMAQKEKELCIGRKKFNMDPAKGIQYFIEHKLLTPDVQDIARFLYKGEGLNKTAIGTYLGERDPINLQVLQAFVDCHEFANLNLVQALRQFLWSFRLPGEAQKIDRMMEAFATRYCLCNPGVFQSTDTCYVLSFSIIMLNTSLHNPNVRDRPPFERFVSMNRGINNGSDLPEDQLRNLFDSIKSEPFSIPEDDGNDLTHTFFNPDREGWLLKLGGRVKTWKRRWFILTDNCLYYFEFTTDKEPRGIIPLENLSVQKVDDPKKPFCLELYNPSCRGQKIKACKTDGDGRVVEGKHESYRISATSAEERDQWIESIRASITRVPFYDLVSTRKKKIASKQ
partner: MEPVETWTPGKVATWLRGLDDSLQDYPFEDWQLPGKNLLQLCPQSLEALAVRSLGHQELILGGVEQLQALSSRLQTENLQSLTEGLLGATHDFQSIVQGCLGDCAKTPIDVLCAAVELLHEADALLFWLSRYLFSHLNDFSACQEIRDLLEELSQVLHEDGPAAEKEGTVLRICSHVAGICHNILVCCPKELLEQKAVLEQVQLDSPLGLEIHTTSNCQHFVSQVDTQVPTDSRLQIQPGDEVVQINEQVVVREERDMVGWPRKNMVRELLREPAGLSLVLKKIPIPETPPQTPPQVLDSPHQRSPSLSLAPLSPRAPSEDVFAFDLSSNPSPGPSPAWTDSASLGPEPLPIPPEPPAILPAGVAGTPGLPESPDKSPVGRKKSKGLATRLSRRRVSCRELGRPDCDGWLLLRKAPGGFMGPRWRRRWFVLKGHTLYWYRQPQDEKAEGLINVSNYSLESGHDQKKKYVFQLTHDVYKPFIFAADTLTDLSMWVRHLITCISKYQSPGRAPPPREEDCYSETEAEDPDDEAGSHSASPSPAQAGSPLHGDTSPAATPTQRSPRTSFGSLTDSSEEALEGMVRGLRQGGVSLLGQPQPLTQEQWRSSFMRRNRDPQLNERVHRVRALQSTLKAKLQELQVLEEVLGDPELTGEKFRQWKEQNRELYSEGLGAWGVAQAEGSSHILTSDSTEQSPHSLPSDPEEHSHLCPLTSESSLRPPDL
B3: Protein BANP (Homo sapiens), Q8N9N5-2 (parent)
chain: MMSEHDLADVVQIAVEDLSPDHPVVLENHVVTDEDEPALKRQRLEINCQDPSIKSFLYSINQTICLRLDSIEAKLQALEATCKSLEEKLDLVTNKQHSPIQVPMVAGSPLGATQTCNKVRCAVPGRRQNTIVVKVPGQEDSHHEDGESGSEASDSVSSCGQAGSQSIGSNVTLITLNSEEDYPNGTWLGDENNPEMRVRCAIIPSDMLHISTNCRTAEKMALTLLDYLFHREVQAVSNLSGQGKHGKKQLDPLTIYGIRCHLFYKFGITESDWYRIKQSIDSKCRTAWRRKQRGQSLAVKSFSRRTPNSSSYCPSEPMMSTPPPASELPQPQPQPQALHYALANAQQVQIHQIGEDGQVQVIPQGHLHIAQVPQGEQVQITQDSEGNLQIHHVGQDGQVLQGAQLIAVASSDPAAAGVDGSPLQGSDIQVQYVQLAPVSDHTAGAQTAEALQPTLQPEMQLEHGAIQIQ
partner: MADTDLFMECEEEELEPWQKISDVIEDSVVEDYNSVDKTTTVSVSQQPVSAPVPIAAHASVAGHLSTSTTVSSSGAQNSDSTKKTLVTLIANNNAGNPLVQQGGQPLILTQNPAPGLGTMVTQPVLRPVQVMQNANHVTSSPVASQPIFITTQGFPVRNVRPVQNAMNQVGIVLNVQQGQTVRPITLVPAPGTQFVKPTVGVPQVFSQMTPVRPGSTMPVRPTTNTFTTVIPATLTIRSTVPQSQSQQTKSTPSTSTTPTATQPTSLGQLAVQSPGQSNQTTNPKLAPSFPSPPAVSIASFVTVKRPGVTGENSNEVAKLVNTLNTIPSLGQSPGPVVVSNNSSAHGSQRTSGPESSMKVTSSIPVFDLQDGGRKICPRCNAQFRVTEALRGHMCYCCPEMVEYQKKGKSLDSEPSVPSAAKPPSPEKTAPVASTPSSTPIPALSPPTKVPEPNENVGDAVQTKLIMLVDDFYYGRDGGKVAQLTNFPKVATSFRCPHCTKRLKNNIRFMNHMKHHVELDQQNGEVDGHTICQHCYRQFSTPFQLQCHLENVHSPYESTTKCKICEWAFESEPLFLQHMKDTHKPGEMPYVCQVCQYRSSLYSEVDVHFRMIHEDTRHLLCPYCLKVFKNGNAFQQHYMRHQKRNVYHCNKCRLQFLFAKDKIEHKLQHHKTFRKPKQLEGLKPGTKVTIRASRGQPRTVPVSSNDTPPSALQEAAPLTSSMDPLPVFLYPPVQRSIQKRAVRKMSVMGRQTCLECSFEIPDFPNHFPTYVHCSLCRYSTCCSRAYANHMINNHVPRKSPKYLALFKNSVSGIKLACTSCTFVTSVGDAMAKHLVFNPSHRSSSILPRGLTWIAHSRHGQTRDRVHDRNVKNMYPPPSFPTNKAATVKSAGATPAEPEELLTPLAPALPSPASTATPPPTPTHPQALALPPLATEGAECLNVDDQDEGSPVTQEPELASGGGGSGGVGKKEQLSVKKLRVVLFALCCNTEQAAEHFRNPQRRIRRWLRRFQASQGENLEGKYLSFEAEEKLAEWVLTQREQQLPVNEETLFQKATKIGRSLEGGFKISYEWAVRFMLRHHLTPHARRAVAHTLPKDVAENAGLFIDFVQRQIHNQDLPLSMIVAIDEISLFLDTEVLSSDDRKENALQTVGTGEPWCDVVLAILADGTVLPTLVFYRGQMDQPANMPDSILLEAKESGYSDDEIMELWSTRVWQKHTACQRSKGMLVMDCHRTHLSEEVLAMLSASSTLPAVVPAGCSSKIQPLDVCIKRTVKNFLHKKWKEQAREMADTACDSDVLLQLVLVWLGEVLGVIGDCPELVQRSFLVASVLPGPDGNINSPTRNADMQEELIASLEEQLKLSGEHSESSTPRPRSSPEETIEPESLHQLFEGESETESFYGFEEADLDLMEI
B4: Ornithine decarboxylase antizyme 3 (Homo sapiens), Q9UMX2 (parent)
chain: MPCKRCRPSVYSLSYIKRGKTRNYLYPIWSPYAYYLYCYKYRITLREKMLPRCYKSITYKEEEDLTLQPRSCLQCSESLVGLQEGKSTEQGNHDQLKELYSAGNLTVLATDPLLHQDPVQLDFHFRLTSQTSAHWHGLLCDRRLFLDIPYQALDQGNRESLTATLEYVEEKTNVDSVFVNFQNDRNDRGALLRAFSYMGFEVVRPDHPALPPLDNVIFMVYPLERDVGHLPSEPP
partner: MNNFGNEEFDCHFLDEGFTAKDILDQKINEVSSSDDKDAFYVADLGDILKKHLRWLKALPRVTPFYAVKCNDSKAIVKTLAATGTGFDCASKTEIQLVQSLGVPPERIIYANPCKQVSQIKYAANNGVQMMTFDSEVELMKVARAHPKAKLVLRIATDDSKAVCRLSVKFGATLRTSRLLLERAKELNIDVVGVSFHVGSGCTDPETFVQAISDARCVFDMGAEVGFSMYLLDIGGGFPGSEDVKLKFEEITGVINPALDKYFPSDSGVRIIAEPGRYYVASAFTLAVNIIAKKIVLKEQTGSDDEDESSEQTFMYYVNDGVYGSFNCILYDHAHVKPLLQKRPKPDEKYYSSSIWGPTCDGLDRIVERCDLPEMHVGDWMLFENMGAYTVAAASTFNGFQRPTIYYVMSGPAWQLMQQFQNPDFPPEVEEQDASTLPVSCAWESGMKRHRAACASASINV
B5: AP-4 complex accessory subunit RUSC1 (Homo sapiens), Q9BVN2 (parent)
chain: MLSPQRALLCNLNHIHLQHVSLGLHLSRRPELQEGPLSTPPPPGDTGGKESRGPCSGTLVDANSNSPAVPCRCCQEHGPGLENRQDPSQEEEGAASPSDPGCSSSLSSCSDLSPDESPVSVYLRDLPGDEDAHPQPSIIPLEQGSPLASAGPGTCSPDSFCCSPDSCSGASSSPDPGLDSNCNALTTCQDVPSPGLEEEDERAEQDLPTSELLEADDGKIDAGKTEPSWKINPIWKIDTEKTKAEWKTTENNNTGWKNNGNVNSSWKSEPEKFDSGWKTNTRITDSGSKTDAGKIDGGWRSDVSEEPVPHRTITSFHELAQKRKRGPGLPLVPQAKKDRSDWLIVFSPDTELPPSGSPGGSSAPPREVTTFKELRSRSRAPAPPVPPRDPPVGWALVPPRPPPPPVPPRRKKNRPGLQPIAEGQSEEGRAVSPAAGEEAPAAKEPGAQAGLEVRSSWSFAGVPGAQRLWMAEAQSGTGQLQEQKKGLLIAVSVSVDKIISHFGAARNLVQKAQLGDSRLSPDVGHLVLTTLCPALHALVADGLKPFRKDLITGQRRSSPWSVVEASVKPGSSTRSLGTLYSQVSRLAPLSSSRSRFHAFILGLLNTKQLELWFSSLQEDAGLLSLLYLPTGFFSLARGGCPSLSTELLLLLQPLSVLTFHLDLLFEHHHHLPLGPPQAPAPPGPPPALQQTMQAMLHFGGRLAQSLRGTSKEAASDPSDSPNLPTPGSWWEQLTQASRVYASGGTEGFPLSRWAPGRHGTAAEEGAQERPLPTDEMAPGRGLWLGRLFGVPGGPAENENGALKSRRPSSWLPPTVSVLALVKRGAPPEMPSPQELEASAPRMVQTHRAVRALCDHTAARPDQLSFRRGEVLRVITTVDEDWLRCGRDGMEGLVPVGYTSLVL

Variants of B1 are the subject of one experiment. The settings on record: with rasf5_human RASSF5, Q8WWW0.
Take R361C: the “effect of a mutation on the interaction” value was “with no effect”.

For the variant C324R, the “effect of a mutation on the interaction” value is given as “disrupting interaction strength”.

As to N13S, the “effect of a mutation on the interaction” value is reported as “with no effect”. For the variant G352R, the “effect of a mutation on the interaction” value was “with no effect”. As for V350D, the “effect of a mutation on the interaction” value was “disrupting interaction strength”.

For L533R, the “effect of a mutation on the interaction” value is “with no effect”. As to E330K, the “effect of a mutation on the interaction” value is “with no effect”. The same measure, in the same setting: the value for Y353S was “with no effect”.

Variants of B2 are the subject of a further experiment. The settings on record: with cnkr1_human CNKSR1, Q969H4.
Consider A9T, for which the “effect of a mutation on the interaction” value is “with no effect”. The same measure, in the same setting: the value for M74V was “with no effect”.

In a further experiment the parent is B3. The settings on record: with pogz_human POGZ.
With A162V, the “effect of a mutation on the interaction” value is listed as “with no effect”.

In a further experiment the parent is B4. The settings on record: with dcor_human ODC1, P11926.
As for R193Q, the “effect of a mutation on the interaction” value is listed as “disrupting interaction strength”. V174A: the “effect of a mutation on the interaction” value was “disrupting interaction strength”.

In a further experiment the parent is B5. The conditions noted are these: with pnma1_human PNMA1, Q8ND90.
Chain of pnma1_human PNMA1, Q8ND90 (Q8ND90 whole entry): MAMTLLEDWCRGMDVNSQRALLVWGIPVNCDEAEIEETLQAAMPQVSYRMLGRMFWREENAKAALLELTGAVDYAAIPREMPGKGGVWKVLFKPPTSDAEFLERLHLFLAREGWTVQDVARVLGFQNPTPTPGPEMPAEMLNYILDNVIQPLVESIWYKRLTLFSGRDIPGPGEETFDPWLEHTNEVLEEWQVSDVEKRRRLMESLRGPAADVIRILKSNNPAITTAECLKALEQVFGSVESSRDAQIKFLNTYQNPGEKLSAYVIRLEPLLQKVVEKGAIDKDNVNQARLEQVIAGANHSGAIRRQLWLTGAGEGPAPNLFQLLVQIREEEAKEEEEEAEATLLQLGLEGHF
Regarding F665S, the “effect of a mutation on the interaction” value is recorded as “with no effect”. Turning to D880Y, the “effect of a mutation on the interaction” value is on record as “with no effect”. Turning to G638S, the “effect of a mutation on the interaction” value is “with no effect”. Regarding S614F, the “effect of a mutation on the interaction” value is listed as “with no effect”.

Another experiment covers variants of B5. The conditions noted are these: with fam9b_human FAM9B.
As to F665S, the “effect of a mutation on the interaction” value is given as “with no effect”. On to D880Y, for which the “effect of a mutation on the interaction” value was “with no effect”. For G638S, the “effect of a mutation on the interaction” value is on record as “with no effect”.

On to S614F, for which the “effect of a mutation on the interaction” value is “disrupting interaction strength”.

Variants of B5 are the subject of a further experiment. The conditions noted are these: with rbpms_human RBPMS.
For G638S, the “effect of a mutation on the interaction” value is recorded as “with no effect”. The same measure, in the same setting: the value for A795T was “with no effect”; that for S614F was “with no effect”.

The record behind these values is IntAct's records for PubMed 31515488.
